Test results reported in patent US20160159879A1 (UNIVERSITY OF NORTH CAROLINA AT CHAPEL HILL, published 2016).
Ends that are not written are not given here. * marks the point of attachment. Biotin = O=C1N[C@H]2[C@H](CS[C@H]2CCCCC(=O)*)N1

How the values were obtained:
[1] = molecular target: ENaC endogenous to primary human bronchial epithelial cultures (human) (UniProt P37088); assay: cell-based or functional assay
[2] = molecular target: αβγENaC expressed in Xenopus laevis oocytes (rat) (UniProt P37089); assay: cell-based or functional assay
[3] = molecular target: yfp-tagged αENaC stably expressed in JME nasal epithelial cells; assay: fluorescence binding isotherm on polarized JME cells expressing yfp-αENaC, 30 min, empty-vector cells as non-specific binding, Hill fit
[4] = system: T1, Recombinant V5/6His-tagged SPLUNC1 purified from HEK293 media
T1 sequence: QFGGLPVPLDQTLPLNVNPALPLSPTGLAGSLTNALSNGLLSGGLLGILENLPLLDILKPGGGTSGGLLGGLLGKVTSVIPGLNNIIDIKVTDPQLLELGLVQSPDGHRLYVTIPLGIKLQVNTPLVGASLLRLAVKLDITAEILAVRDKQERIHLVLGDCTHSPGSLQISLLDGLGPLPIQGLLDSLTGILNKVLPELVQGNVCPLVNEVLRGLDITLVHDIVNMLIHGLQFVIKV

[5] = molecular target: ENaC endogenous to primary human bronchial epithelial cultures (human, UniProt P37088 1-669; P51168 1-640; P51170 1-649); assay: cell-based or functional assay
[6] = molecular target: T2, Human αENaC subunit, HA (N-terminus) and V5 (C-terminus) tagged, expressed alone in HEK293T cells (human, UniProt P37088 1-669); assay: pull-down with biotinylated S18 of subunits expressed individually in HEK cells, Western blot
T2 sequence (looked up): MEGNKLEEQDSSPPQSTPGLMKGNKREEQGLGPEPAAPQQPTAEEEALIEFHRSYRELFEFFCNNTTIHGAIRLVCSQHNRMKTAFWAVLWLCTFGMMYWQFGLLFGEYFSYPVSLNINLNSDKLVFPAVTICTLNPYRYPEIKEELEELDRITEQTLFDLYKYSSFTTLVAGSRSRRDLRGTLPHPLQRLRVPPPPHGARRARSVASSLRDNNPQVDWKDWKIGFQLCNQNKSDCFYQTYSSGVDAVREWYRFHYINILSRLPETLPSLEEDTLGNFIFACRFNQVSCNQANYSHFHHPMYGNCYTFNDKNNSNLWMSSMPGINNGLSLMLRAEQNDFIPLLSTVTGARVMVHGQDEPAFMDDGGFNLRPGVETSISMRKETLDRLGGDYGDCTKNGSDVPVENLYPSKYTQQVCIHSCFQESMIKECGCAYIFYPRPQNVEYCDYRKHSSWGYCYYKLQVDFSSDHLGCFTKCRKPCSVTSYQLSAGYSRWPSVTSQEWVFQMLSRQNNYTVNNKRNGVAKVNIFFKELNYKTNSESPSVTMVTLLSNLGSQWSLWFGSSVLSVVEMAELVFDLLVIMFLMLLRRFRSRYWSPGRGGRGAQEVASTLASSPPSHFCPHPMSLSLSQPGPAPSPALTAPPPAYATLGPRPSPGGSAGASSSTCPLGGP

[7] = molecular target: T3, Human γENaC subunit, HA (N-terminus) and V5 (C-terminus) tagged, expressed alone in HEK293T cells (human, UniProt P51170 1-649); assay: as above
T3 sequence (looked up): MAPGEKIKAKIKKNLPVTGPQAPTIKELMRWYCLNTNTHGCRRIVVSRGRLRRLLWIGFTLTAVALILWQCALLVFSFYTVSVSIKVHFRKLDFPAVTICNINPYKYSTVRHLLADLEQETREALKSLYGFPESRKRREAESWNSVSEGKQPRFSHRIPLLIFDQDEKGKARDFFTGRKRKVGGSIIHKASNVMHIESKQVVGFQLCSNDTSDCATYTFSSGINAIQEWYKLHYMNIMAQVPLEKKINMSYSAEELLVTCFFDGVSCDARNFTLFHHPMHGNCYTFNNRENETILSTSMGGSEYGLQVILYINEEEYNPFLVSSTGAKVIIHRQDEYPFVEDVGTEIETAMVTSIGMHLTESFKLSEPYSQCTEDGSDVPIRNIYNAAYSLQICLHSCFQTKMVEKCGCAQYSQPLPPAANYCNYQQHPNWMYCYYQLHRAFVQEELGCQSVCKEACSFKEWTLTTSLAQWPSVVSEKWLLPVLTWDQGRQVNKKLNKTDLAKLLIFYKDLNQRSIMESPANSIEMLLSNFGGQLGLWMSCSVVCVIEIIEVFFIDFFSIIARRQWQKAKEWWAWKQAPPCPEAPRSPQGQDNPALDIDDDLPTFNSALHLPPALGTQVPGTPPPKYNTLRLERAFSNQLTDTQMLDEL

[8] = molecular target: αβγENaC expressed in Xenopus laevis oocytes (rat, UniProt P37089 1-698; P37090 1-638; P37091 1-650); assay: cell-based or functional assay
[9] = molecular target: T4, Human βENaC subunit, HA (N-terminus) and V5 (C-terminus) tagged, expressed in HEK293T cells (human, UniProt P51168 1-640, glycosylated (EndoH and tunicamycin experiments)); assay: peptide pull-down on neutravidin beads, Western blot with anti-V5
T4 sequence (looked up): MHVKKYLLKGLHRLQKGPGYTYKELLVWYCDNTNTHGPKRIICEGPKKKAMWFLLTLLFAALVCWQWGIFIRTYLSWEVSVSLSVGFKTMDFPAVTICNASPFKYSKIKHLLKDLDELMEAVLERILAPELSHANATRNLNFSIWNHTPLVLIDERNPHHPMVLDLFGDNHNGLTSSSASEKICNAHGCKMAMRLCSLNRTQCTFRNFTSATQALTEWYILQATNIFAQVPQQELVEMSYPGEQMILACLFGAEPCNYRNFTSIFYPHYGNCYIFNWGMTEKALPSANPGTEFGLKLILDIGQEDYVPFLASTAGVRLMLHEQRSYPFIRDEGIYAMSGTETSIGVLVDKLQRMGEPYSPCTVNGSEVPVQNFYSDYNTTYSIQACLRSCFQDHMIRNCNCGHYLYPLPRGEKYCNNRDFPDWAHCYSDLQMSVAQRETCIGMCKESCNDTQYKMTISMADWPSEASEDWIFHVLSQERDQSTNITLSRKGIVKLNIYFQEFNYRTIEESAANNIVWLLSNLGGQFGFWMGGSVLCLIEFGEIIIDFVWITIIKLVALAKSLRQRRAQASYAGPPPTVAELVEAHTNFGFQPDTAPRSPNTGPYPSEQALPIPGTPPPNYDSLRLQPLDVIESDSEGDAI

Chain of αβγENaC expressed in Xenopus laevis oocytes (P37089 whole entry, chain 1 of 3): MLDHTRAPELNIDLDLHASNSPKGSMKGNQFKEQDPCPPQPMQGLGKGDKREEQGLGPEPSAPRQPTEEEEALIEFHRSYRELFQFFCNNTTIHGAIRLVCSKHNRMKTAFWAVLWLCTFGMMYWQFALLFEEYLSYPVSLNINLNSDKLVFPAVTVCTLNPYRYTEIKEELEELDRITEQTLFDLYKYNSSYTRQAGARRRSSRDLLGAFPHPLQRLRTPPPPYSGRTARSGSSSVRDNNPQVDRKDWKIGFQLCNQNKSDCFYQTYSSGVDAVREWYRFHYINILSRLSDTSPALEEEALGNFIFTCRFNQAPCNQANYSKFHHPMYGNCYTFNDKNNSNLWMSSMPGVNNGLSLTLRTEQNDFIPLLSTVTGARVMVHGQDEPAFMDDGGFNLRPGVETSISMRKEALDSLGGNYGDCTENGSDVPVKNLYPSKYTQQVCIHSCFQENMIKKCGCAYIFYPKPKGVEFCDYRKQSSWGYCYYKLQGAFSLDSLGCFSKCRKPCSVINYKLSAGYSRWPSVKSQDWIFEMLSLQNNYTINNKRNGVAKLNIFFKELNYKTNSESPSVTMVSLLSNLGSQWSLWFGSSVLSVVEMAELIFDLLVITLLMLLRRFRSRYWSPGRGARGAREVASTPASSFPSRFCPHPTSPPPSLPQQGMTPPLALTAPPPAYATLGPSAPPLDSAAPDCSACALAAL
Chain of αβγENaC expressed in Xenopus laevis oocytes (P37090 whole entry, chain 2 of 3): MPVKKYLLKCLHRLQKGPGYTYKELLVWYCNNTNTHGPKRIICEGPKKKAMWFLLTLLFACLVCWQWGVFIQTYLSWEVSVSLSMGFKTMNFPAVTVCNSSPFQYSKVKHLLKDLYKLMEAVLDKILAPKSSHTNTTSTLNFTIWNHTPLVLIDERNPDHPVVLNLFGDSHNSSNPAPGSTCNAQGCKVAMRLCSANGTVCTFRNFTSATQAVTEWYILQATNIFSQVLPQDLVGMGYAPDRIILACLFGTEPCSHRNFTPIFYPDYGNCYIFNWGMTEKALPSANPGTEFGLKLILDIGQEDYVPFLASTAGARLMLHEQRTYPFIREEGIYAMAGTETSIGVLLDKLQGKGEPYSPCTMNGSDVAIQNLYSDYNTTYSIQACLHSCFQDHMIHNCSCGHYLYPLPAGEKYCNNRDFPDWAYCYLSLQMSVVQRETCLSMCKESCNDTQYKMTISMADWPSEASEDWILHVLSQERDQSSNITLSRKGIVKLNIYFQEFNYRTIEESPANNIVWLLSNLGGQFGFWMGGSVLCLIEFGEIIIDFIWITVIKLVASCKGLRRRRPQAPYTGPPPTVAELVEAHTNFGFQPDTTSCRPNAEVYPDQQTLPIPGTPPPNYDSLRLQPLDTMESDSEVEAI
Chain of αβγENaC expressed in Xenopus laevis oocytes (P37091 whole entry, chain 3 of 3): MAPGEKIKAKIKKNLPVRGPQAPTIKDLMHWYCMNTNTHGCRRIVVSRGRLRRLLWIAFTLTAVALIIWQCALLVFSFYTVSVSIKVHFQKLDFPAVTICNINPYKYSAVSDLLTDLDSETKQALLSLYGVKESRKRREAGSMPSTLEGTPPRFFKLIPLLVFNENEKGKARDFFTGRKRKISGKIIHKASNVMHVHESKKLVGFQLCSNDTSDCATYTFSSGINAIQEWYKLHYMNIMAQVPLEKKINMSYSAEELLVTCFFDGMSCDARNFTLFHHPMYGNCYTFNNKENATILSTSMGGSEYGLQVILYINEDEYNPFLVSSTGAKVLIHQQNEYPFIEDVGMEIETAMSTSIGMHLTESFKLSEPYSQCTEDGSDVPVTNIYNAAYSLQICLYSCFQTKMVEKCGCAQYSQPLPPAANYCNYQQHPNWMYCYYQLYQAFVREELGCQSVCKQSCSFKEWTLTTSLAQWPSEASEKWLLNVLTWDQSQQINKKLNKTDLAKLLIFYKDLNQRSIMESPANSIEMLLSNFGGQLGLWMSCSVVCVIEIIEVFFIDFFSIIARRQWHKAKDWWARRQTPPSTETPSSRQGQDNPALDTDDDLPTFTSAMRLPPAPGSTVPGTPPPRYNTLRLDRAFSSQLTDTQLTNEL
Chain of αβγENaC expressed in Xenopus laevis oocytes (rat) (P37089 whole entry, chain 1 of 3): as the sequence (P37089 whole entry, chain 1 of 3) above
Chain of αβγENaC expressed in Xenopus laevis oocytes (rat) (P37090 whole entry, chain 2 of 3, further chain): as the sequence (P37090 whole entry, chain 2 of 3) above
Chain of αβγENaC expressed in Xenopus laevis oocytes (rat) (P37091 whole entry, chain 3 of 3, further chain): as the sequence (P37091 whole entry, chain 3 of 3) above

**Q.** Which results are given for “Recombinant V5/6His-tagged SPLUNC1 purified from HEK293 media (from UniProt Q9NP55 20-256)”?
**A.** transepithelial electrical resistance [1]: 33%; decrease in ENaC currents (amiloride-sensitive), two electrode voltage clamp in oocytes [2]: 70%

**Q.** How did the Kd [3] turn out when “Texas red-labeled recombinant SPLUNC1 (from UniProt Q9NP55 20-256)” was run?
**A.** Its Kd is 0.055 µg/mL.

**Q.** For Trypsin, which “cleavage of the fluorogenic substrate BGAR-MCA by 1.0 or 0.3 U/ml trypsin” value [4] is on record?
**A.** The value was 50 ng/ml rSPLUNC1 had only a modest affect (˜10%) on the ability of either 1.0 or 0.3 U/ml trypsin to cleave a fluorogenic substrate.

**Q.** Which “IC50, dose response of ASL height in CF HBECs 8 h post-S18 addition” value [5] does the source give for GGLPVPLDQTLPLNVNPA [S18 peptide (amino acids 22-39 of human SPLUNC1)] here?
**A.** Its value is 600 nM.

**Q.** What does the source list for Biotin-GGLPVPLDQTLPLNVNPA (also called G22-A39) [Biotinylated S18 peptide]?
**A.** binding result [6]: no binding; binding result [7]: no binding

B1: V5-tagged SPLUNC1 expressed in Xenopus oocytes from injected cRNA (other, not shown: small tags and cut ends)
chain: T1 sequence
**Q.** With B1 as the molecule, how does the “decrease in amiloride-sensitive current relative to control oocytes” value [8] read?
**A.** Its value is ~70%.

**Q.** Does Biotin-ADGGLLLLNNPPPPQTVV (also called ADG) [Control peptide ABC (alphabetized G22-A39), biotinylated] bind [9]?
**A.** Result: no binding
